Assay results from patent US20220267469A1 (LIPUM, published 2022).
Changes are numbered by the printed parent chain. Names and notes keep the numbering of the source.

T1: Biotinylated human BSSL (human, UniProt P19835 21-753, Biotinylated on glycosacarides, 30-40 biotin/BSSL)
T1 construct: hBSSL biotinylated in house; also called b-hBSSL; human BSSL-biotin
T1 sequence: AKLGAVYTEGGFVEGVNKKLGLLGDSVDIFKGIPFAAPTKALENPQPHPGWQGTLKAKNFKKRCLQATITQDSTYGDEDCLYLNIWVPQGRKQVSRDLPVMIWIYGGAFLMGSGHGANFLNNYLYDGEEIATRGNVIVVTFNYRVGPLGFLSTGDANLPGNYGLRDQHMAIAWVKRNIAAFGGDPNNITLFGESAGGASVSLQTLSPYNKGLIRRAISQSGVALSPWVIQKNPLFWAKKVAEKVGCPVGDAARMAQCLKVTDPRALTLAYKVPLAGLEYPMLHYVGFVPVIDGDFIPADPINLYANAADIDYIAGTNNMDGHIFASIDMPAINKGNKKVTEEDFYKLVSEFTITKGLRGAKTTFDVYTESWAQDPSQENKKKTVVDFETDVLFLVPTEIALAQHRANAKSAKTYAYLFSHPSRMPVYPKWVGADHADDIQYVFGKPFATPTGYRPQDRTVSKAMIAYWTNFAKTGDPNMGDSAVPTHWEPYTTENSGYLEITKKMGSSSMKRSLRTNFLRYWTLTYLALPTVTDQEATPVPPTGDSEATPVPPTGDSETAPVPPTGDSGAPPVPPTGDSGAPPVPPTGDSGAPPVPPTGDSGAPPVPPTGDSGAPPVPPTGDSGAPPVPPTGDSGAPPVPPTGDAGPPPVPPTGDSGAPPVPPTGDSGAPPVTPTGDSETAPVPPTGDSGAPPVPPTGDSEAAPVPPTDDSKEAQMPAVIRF

T2: Human BSSL (bile salt-stimulated lipase), native (human, UniProt P19835 21-753)
T2 construct: Native full-length protein purified from human milk (Astra Hässle AB); also called hBSSL; non-biotinylated human BSSL
T2 sequence: T1 sequence

T3: Mouse BSSL, recombinant (mouse, UniProt Q64285 21-599)
T3 construct: Bought (R&D Systems, Cat. no 5658-CE); also called mBSSL; murine BSSL
T3 sequence: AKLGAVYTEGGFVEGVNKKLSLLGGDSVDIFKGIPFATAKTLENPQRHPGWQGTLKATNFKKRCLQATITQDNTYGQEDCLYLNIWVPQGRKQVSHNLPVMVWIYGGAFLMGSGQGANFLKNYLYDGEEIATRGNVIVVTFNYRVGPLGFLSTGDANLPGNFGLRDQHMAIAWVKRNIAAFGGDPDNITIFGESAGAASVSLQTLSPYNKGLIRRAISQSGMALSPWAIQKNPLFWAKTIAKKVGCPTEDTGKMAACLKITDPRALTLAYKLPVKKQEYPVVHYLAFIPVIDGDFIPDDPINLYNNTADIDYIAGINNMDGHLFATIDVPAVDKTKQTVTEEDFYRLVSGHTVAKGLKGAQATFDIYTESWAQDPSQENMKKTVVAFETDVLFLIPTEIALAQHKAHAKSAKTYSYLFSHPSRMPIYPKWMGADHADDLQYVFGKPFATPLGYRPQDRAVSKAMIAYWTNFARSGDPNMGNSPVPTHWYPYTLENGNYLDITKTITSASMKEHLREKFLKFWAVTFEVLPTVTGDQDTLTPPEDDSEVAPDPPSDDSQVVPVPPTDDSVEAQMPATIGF

B1: S-SL048-14 hIgG4 S228P (antibody, V domains shown)
VH: QVQLVQSGAEVKKPGASVKVSCKASGYTFTSYNMHWVRQAPGQGLEWMGVINPGDGATSYAQKFKGRVTMTRDTSTSTVYMELSSLRSEDTAVYYCARDYYGSSPLGYWGQGTLVTVSS
VL: DIQMTQSPSSLSASVGDRVTITCRASPSISYLNWYQQKPGKAPKLLIYATSRLPSGVPSRFSGSGSGTDFTLTISSLQPEDFATYYCQQRSSSPTFGQGTKLEIK
notes: Tested as human IgG4 S228P
B2: S-SL048-38 hIgG4 S228P (antibody, V domains shown)
VH: B1 VH with K65Q
VL: B1 VL with R52S, P54A
notes: Tested as human IgG4 S228P
B3: S-SL048-40 hIgG4 S228P (antibody, V domains shown)
VH: B1 VH with M48I, G54S, K65Q
VL: B1 VL with P27S, T50A
notes: Tested as human IgG4 S228P
B4: S-SL048-41 hIgG4 S228P (antibody, V domains shown)
VH: B1 VH with M48I, N52Y
VL: B1 VL with P27S, L32M, Q88H
notes: Tested as human IgG4 S228P
B5: S-SL048-48 hIgG4 S228P (antibody, V domains shown)
VH: B1 VH with M48I, K65Q
VL: B1 VL with L32M, P54Q, Q88H
notes: Tested as human IgG4 S228P
B6: S-SL048-65 hIgG4 S228P (antibody, V domains shown)
VH: B1 VH with M48I
VL: B1 VL with R24S, P27Q, A49D, T50A, R52S, Q88H
notes: Tested as human IgG4 S228P
B7: S-SL048-66 hIgG4 S228P (antibody, V domains shown)
VH: B1 VH with A61N
VL: B1 VL with R24S, P27Q, L32M, A49D, T50A, R52S, P54A, Q88H, S93T
notes: Tested as human IgG4 S228P
B8: S-SL048-103 hIgG4 S228P (antibody, V domains shown)
VH: B1 VH
VL: B1 VL with P27S, L32M, N33H, R52S, P54A, Q88H
notes: Tested as human IgG4 S228P
B9: S-SL048-109 hIgG4 S228P (antibody, V domains shown)
VH: B1 VH with G54S
VL: B1 VL with P54A
notes: Tested as human IgG4 S228P
B10: S-SL048-125 hIgG4 S228P (antibody, V domains shown)
VH: B1 VH with M48I, K65Q
VL: B1 VL with P27S, N33H, T50A, Q88H, S93Y
notes: Tested as human IgG4 S228P
B11: S-SL048-131 hIgG4 S228P (antibody, V domains shown)
VH: B1 VH with M48I
VL: B1 VL with T50A, R52K, P54A, Q88H
notes: Tested as human IgG4 S228P
B12: S-SL048-74 hIgG4 S228P (antibody, V domains shown)
VH: B1 VH with M48I, K65Q
VL: B1 VL with P27Q, T50A, R52S, P54A, Q88H
notes: Tested as human IgG4 S228P

Assays:
[1] = molecular target: T1, Biotinylated human BSSL; assay: flow cytometry displacement assay; 1.0 ug antibody, 1 ug b-hBSSL
Experimental: (§1) The 28 BSSL-specific hIgG4 antibodies and the five reference antibodies at different concentrations (ranging from 0.5 μg to 3.0 μg per reaction; see Table 10) were added to b-hBSSL (1 μg per reaction, see Table 2) in round-bottom polystyrene tubes, lx PBS (pH 7.4) was added to a final volume of 20 μl and the antibody/b-hBSSL mixtures were incubated for 30 min. at +4° C. to facilitate binding of antibodies to BSSL. Buffy coat (50 μl) was then added to each antibody/b-hBSSL mixture and incubation continued for another 30 min at +4° C. Thereafter, 2 ml of FACS lysing solution (BD Biosciences) was added and the cells were incubated for 10 min at room temperature in order to lyse erythrocytes and fix the white blood cells. The cells were then centrifuged for 5 min. at 200×g, the resulting pellets were washed by adding 2 ml of FACS buffer (1×PBS supplemented with 1% FCS and 0.1% NaN3) and centrifuged again. Finally, the supernatants were discarded and the cells were resuspended in the last drop of liquid, approximately 50 μl.
(§2) 5 μl of BV421-labelled anti-human CD14 (BD Biosciences) and 5 μl of BB515-labelled streptavidin (BD Biosciences) was added to each tube and incubated for 30 min, at +4° C., protected from light. Thereafter, cells were washed twice with FACS buffer, resuspended in 500 μl FACS buffer, and run on BD LSRII flow cytometer (BD Biosciences). Finally, data were analyzed using FlowJo software (BD Biosciences).

[2] = molecular target: T1, Biotinylated human BSSL; assay: flow cytometry displacement assay; 1.5 ug antibody, 1 ug b-hBSSL
Experimental: as §1, §2

[3] = molecular target: T1, Biotinylated human BSSL; assay: flow cytometry displacement assay; 0.5 ug antibody, 1 ug b-hBSSL
Experimental: as §1, §2

[4] = molecular target: T2, Human BSSL (bile salt-stimulated …); assay: SPR single cycle kinetics, hIgG4 S228P captured by anti-Fab
Experimental: (§3) Kinetic parameters of the hIgG4 S228P clones were determined by SPR using BIACORE® T200 (GE Healthcare). Single cycle kinetics was used to measure the affinity of the purified hIgG4 molecules to human and mouse BSSL. An anti-Fab antibody (GE Healthcare, #28958325) was immobilized on a CM5 S sensor chip by primary amine coupling using NHS-EDC chemistry. hIgG4 was captured by the anti-Fab antibody, and subsequently, five different concentrations of hBSSL (1:5 dilutions starting from 50 nM) or mBSSL (1:5 dilutions starting from 500 nM) were injected over the surface. The sensor chip surface was regenerated with 10 mM glycine-HCl pH 2.1. For binding to human BSSL, single cycle kinetic data was fitted to a 1:1 binding model and kinetic parameters were retrieved using software BlAevaluation. For mouse BSSL, a steady state analysis was performed by plotting the response level at equilibrium against each concentration, and KD values were retrieved by the BlAevalution software.

[5] = molecular target: T1, Biotinylated human BSSL; assay: flow cytometry displacement assay; 3.0 ug antibody, 1 ug b-hBSSL
Experimental: as §1, §2

[6] = molecular target: T3, Mouse BSSL, recombinant; assay: SPR steady state, hIgG4 S228P captured by anti-Fab
Experimental: as §3

[7] = molecular target: T1, Biotinylated human BSSL; assay: flow cytometry displacement assay; 2.0 ug antibody, 1 ug b-hBSSL
Experimental: as §1, §2

Binder | percentage reduction of b-hBSSL binding to CD14+ monocytes [1] [%] | percentage reduction of b-hBSSL binding to CD14+ monocytes [2] [%] | percentage reduction of b-hBSSL binding to CD14+ monocytes [3] [%] | Kd [4] [nM] | percentage reduction of b-hBSSL binding to CD14+ monocytes [5] [%] | Kd [6] [nM] | percentage reduction of b-hBSSL binding to CD14+ monocytes [7] [%]
B1 | 32 | 48 | 11 | 0.9 | 56 | 89 | –
B2 | 44 | 52 | 6 | 1 | 51 | 67 | –
B3 | 28 | 44 | 20 | 1 | 53 | 87 | –
B4 | 29 | 51 | 12 | 1.2 | 72 | 79 | 71
B5 | 23 | 50 | 28 | 0.8 | 68 | 41 | 61
B6 | 23 | 21 | 5 | – | 39 | 30 | 35
B7 | 12 | 39 | 12 | 8 | 51 | 83 | 43
B8 | -1 | 26 | 12 | 1.7 | 69 | 199 | –
B9 | – | 38 | – | 1.4 | 51 | 353 | –
B10 | – | 9 | – | 2.1 | 33 | 123 | –
B11 | – | 31 | – | 2.7 | 58 | 63 | –
B12 | – | 29 | – | 4.8 | 52 | 21 | –
